Laboratory results: the supplement of paper PMC10567573

B1: SETD8 (parent)
chain: GKQAPRKKAQGKTQQNRKLTDFYP

Variants of: B1
Assay: protein stability index of a GFP-peptide fusion (GPS, HEK-293T) (PSI 1-6); higher = more stable
Details: c terminus: a fixed tail appended
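Also: lentivirally expressed fusions sorted by FACS into six bins by GFP to DsRed ratio, PSI derived from sequencing read proportions per bin multiplied by bin number.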

Protein stability index: each site, then its substitutions
K2: W 3.69; Y 2.95
Q3: A 2.63; D 3.41; F 2.67; G 3.38; H 3.8; I 3.33; K 3.85; P 2.01; R 4.32; T 2.93; V 2.28; Y 3.58
A4: C 3.34; E 3.04; F 3.05; G 3.46; I 3.09; K 3.73; N 3.23; P 2.63; Q 2.77; R 3.15; S 4.29; T 2.71; V 1.83; W 3.3
P5: A 2.52; C 1.99; E 3.58; F 2.95; G 4.29; H 2.85; I 3.36; K 3.35; L 2.74; M 3.08; Q 3.75; S 4.65; T 1.74; V 3.18; W 2.57; Y 2.2
R6: A 3.42; C 2.82; D 3.67; E 3.29; F 2.43; G 3.55; H 3.07; I 2.76; K 3.44; N 4.12; P 4.13; S 3.46; T 3.21; V 2.68; W 2.48; Y 2.65
K7: D 3.07; E 2.82; F 2.42; M 3.72; N 2.21; Q 3.96; S 2.48; T 2.78; W 2.95; Y 3.06
K8: A 3.52; C 3.48; F 1.63; G 3.85; H 2.99; I 3.04; L 1.99; M 3.47; N 2.77; P 3.76; Q 4.11; R 2.75; S 3.55; T 2.77; W 3.3; Y 3.22
A9: C 2.77; D 3.57; H 2.6; I 3.08; M 2.54; N 4.09; P 3.43; Q 2.89; Y 3.35
Q10: A 3.52; D 3.17; E 2.78; F 3.28; I 2.86; M 2.55; P 2.65; R 3.16; S 4.86; V 3.01; W 2.08; Y 3.22
G11: A 4.17; D 2.94; E 3.42; H 3.56; I 3.73; K 2.91; L 3.27; M 3.29; N 3.6; P 3.46; R 2.66; S 3.55; T 2.84; Y 3.21
K12: A 2.76; C 2.19; D 2.51; E 3.66; F 4.09; G 3.37; I 2.85; L 3.21; N 3.07; P 2.51; R 2.99; T 3.32; W 3.08; Y 3.42
T13: A 3.48; D 3.09; E 3.83; F 2.37; G 3.35; I 3.28; M 2.16; N 2.87; Q 3.93; R 3.82; S 2.04; V 3.39
Q14: A 2.81; C 2.37; D 3.06; E 3.41; F 1.92; G 2.52; H 1.57; I 3.11; M 3.64; P 4.36; R 1.85; S 1.89; T 3.4; V 3.07; W 3.37; Y 3.4
Q15: C 2.15; D 3.71; H 3.76; L 2.76
